Assay results as given in publication PMC11808413 (FEBS letters, 2024).
No end group written: not given here.

B1: MBP-tagged lumenal segment of Arabidopsis thaliana LTO1 (AA 251-376) (domain or fragment, UniProt Q8L540 251-376, looked up)
chain: SRSGDIELPYFRTEISSSSSPYAIALAKHLNSIGAKMYGAFWCSHCLEQKEMFGREAAKELNYVECFPDGYKKGTKILKACADAAIEGFPTWIINDKVLSGEIELAELAEMTGFSLDQANETNQLQ

Experiments:
[1] = target: the molecule itself; experiment: non-reducing SDS-urea-PAGE (disulfide-linked oligomers); 5 uM desalted MBP-tagged lumenal segment, air-oxidized or with 2 mM diamide or H2O2 for 30 minutes at room temperature, non-reducing 8 % SDS-urea-PAGE; oxidants raise the share of dimers, and higher order oligomers appear for the wild type
[2] = target: the molecule itself; experiment: non-reducing gel (disulfide-linked oligomers); air-oxidized MBP-tagged LTO1 alone (Fig. 3, lane 2)

Row | Protein | binding result [1] | binding result [2]
1 | AQLIDTVHNLFIGVGVGLPSTVMECGDMIYRSTLPKSNGLTITA (domain or fragment, UniProt Q9S713 46-89, looked up, also: MBP-tagged) [MBP-tagged lumenal segment of Arabidopsis thaliana STN7 (AA 46-89), C65S] | binds | 
2 | AQLIDTVHNLFIGVGVGLPCTVMESGDMIYRSTLPKSNGLTITA (domain or fragment, UniProt Q9S713 46-89, looked up, also: MBP-tagged) [MBP-tagged lumenal segment of Arabidopsis thaliana STN7 (AA 46-89), C70S] | binds | 
3 | B1 |  | binds
